Numbering of substitutions follows the chain as printed.
Assays:
Test in all cases: SPR, KD relative to WT C2;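 also: biacore SPR at 37 °C, anti-C2 mAbs captured via immobilised goat anti-human IgG, C2 alanine or serine surface mutants as analytes, 1:1 model fitted, double-referenced sensograms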
human C2 D282A = target: T1, human C2 D282A (human, UniProt P06681 21-752)
T1 sequence: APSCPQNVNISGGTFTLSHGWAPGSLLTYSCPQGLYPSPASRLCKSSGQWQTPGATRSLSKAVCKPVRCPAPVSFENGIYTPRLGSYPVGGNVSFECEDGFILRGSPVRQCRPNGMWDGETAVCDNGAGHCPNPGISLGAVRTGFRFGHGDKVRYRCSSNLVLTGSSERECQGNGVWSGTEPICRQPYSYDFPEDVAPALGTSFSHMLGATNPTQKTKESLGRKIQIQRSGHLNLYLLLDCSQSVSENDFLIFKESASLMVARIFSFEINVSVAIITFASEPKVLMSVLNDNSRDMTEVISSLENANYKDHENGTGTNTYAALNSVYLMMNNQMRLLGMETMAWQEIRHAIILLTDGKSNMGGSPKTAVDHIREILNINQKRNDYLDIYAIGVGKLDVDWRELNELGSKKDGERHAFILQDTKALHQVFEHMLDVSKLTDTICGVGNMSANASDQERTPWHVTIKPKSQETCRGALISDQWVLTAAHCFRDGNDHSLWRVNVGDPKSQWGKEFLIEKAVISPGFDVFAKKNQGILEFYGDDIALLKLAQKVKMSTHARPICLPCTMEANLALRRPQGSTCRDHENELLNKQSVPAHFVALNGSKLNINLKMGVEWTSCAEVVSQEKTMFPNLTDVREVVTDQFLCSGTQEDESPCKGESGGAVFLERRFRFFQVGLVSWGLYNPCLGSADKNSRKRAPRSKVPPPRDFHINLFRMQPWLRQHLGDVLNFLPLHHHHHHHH

human C2 N268A = target: T2, human C2 N268A (human, UniProt P06681 21-752)
T2 sequence: T1 sequence with N248A, A262D

human C2 I272A = target: T3, human C2 I272A (human, UniProt P06681 21-752)
T3 sequence: T1 sequence with I252A, A262D

human C2 F689A = target: T4, human C2 F689A (human, UniProt P06681 21-752)
T4 sequence: T1 sequence with A262D, F669A

Measured: Fold diff

B1: RF16-226 (antibody, human IgG4 S228P, lambda)
heavy: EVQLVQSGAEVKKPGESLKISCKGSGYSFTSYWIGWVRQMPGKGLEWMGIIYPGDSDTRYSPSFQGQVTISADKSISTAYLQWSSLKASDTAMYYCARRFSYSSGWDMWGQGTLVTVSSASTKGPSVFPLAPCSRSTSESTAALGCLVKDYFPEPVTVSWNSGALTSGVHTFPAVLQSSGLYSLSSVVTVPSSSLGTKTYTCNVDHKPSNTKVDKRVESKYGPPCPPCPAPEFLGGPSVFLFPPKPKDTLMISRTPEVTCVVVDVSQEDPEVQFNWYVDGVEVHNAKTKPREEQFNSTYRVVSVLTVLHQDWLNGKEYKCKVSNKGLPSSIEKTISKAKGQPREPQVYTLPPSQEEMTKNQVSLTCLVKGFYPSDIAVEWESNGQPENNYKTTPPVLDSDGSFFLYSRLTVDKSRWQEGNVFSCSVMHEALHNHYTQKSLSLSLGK
light: SYELTQPPSVSVSPGQTARITCSGDALTSKYVAWYQQKSGLAPLLVIYEDTRRPSGIPAKFSGSSSGSVATLTISGAHGDDEADYYCYSTDASGHQRVFGGGTKLTVLSQPKAAPSVTLFPPSSEELQANKATLVCLISDFYPGAVTVAWKADGSPVKAGVETTKPSKQSNNKYAASSYLSLTPEQWKSHRSYSCQVTHEGSTVEKTVAPTECS
notes: pH-dependent anti-C2 antibody from a phage display library; also called WT
1 fold: all assays above

Reference: patent US20220332804A1 (CSL INNOVATION, published 2022)
